The Immune Epitope Database (IEDB)

Columns and labels:
Assay in all cases: IEDB peptide-MHC binding, purified MHC/competitive/radioactivity; filed as Kd, often an IC50 or EC50 that approximates it; ≥ and ≤ were set here for values at or beyond the usual limits of such assays
[1] = molecular target: HLA-A*03:01
[2] = molecular target: HLA-A*11:01
[3] = molecular target: HLA-A*31:01
[4] = molecular target: HLA-A*33:01
[5] = molecular target: HLA-A*68:01
[6] = source organism: SARS coronavirus Tor2
[7] = source organism: Vaccinia virus WR
[8] = source organism: Dengue virus 4 Philippines/H241/1956
[9] = source organism: Mammarenavirus brazilense
[10] = source organism: Dengue virus 2 Jamaica/1409/1983
[11] = source organism: Dengue virus 1 Singapore/S275/1990
[12] = source organism: Dengue virus 3 Martinique/1243/1999
[13] = source organism: Lassa virus GA391
[14] = source organism: Vaccinia virus Copenhagen
[15] = source organism: Dengue virus 1 Nauru/West Pac/1974
[16] = source organism: Mammarenavirus machupoense
[17] = source organism: Mammarenavirus lassaense
[18] = source organism: Dengue virus 1 Brazil/97-11/1997
[19] = source organism: Mammarenavirus guanaritoense

Sequence | Kd [1, 7] [nM] | Kd [2, 7] [nM] | Kd [3, 7] [nM] | Kd [4, 7] [nM] | Kd [5, 7] [nM] | other results
AANTVIWDY |  |  |  |  |  | Kd [1, 6]: ≥ 78000 nM; Kd [2, 6]: 107 nM; Kd [3, 6]: ≥ 38100 nM; Kd [4, 6]: ≥ 77700 nM; Kd [5, 6]: 14200 nM
AISAVYFKAK | 8.04 | 26 | 1640 | ≥ 70000 | 2530 | 
ALTLHWFRK |  |  |  |  |  | Kd [1, 8]: 15 nM; Kd [2, 8]: 100 nM
AQQFANVISK | 83.8 | 2.68 | 1940 | ≥ 70000 | 17600 | 
CEMNHVNSMH |  |  |  |  |  | Kd [5, 9]: ≥ 48100 nM
DAEACYIYK | 1350 | 57.5 | 208 | 234 | 49.2 | 
DFIRRKYLIY | 8650 | ≥ 20200 | ≥ 70000 | 10400 | 1100 | 
DGCWYGMEIR |  |  |  |  |  | Kd [4, 10]: 154 nM
DILTYNKTSK | 2320 | ≥ 21100 | ≥ 38100 | 1760 | 2970 | 
DLTTMPTYK | 757 | 293 | 630 | 914 | 128 | 
DNQKLSYLK |  |  |  |  |  | Kd [1, 9]: ≥ 78000 nM; Kd [3, 9]: 2650 nM; Kd [4, 9]: 8370 nM; Kd [5, 9]: 7480 nM
DTRTPKAKR |  |  |  |  |  | Kd [4, 11]: 93.7 nM
DVHPGEPVVK | 15400 | ≥ 23700 | ≥ 32000 | ≥ 70000 | 57 | 
DVRDKRRKY | ≥ 28900 | ≥ 77900 | ≥ 77900 | ≥ 77700 | ≥ 53800 | 
EFVMCLEAK | ≥ 54200 | 965 | 9760 | 153 | 267 | 
EFWKLVDRER |  |  |  |  |  | Kd ([4]; source organism: Dengue virus 3 Sri Lanka/1266/2000): 2.92 nM
EIKAEMQLK | 1020 | 1670 | ≥ 43900 | 1520 | 15.7 | 
EILKINSVKY | 6090 | 6290 | 1040 | 5170 | 3870 | 
EILRNYLRLY | 489 | 2110 | 3460 | 123 | 512 | 
ELAELLEMKY | 14200 | ≥ 29500 | ≥ 50800 | ≥ 70000 | 2840 | 
ELGIAIFNNR | 961 | 1470 | 59.9 | 160 | 40.6 | 
ELYVSSSYK | 0.73 | 12.4 | ≥ 77900 | ≥ 54200 | 6.71 | 

Sequence | Kd [1, 7] [nM] | Kd [2, 7] [nM] | Kd [3, 7] [nM] | Kd [4, 7] [nM] | Kd [5, 7] [nM] | other results
EMGLLETTKR |  |  |  |  |  | Kd [4, 12]: 58.2 nM
ENAVWDQFK |  |  |  |  |  | Kd [1, 13]: ≥ 31500 nM; Kd [2, 13]: 15100 nM; Kd [3, 13]: ≥ 77900 nM; Kd [4, 13]: 1020 nM; Kd [5, 13]: 250 nM
ESNIEIMDK | 15500 | 10800 | ≥ 77900 | ≥ 77700 | 11.2 | 
ETKGVERLKR |  |  |  |  |  | Kd [4, 12]: 336 nM; Kd [5, 12]: 14.2 nM
ETTMRGAKR |  |  |  |  |  | Kd [4, 10]: 117 nM; Kd [5, 10]: 35.8 nM
FASADNHPK | 7960 | 174 | 12400 | 1240 | 55.7 | 
FIRIIRPDY | ≥ 78000 | ≥ 56200 | 7050 | ≥ 24700 | 3090 | 
FLLNISYLCH |  |  |  |  |  | Kd [1, 9]: 11800 nM; Kd [2, 9]: ≥ 46600 nM; Kd [3, 9]: 5830 nM; Kd [4, 9]: 5.32 nM
FLLRHYYNKR | 1840 | 1130 | 16.2 | 17.4 | 1850 | 
FMRFFQLLR | 141 | 354 | 0.668 | 1.97 | 11.7 | 
FVVTLIPLCR |  |  |  |  |  | Kd [4, 8]: 11.8 nM; Kd [5, 8]: 3.1 nM
GLACYRFVK |  |  |  |  |  | Kd [1, 14]: 22.2 nM; Kd [2, 14]: 24 nM; Kd [3, 14]: 217 nM; Kd [4, 14]: 1830 nM; Kd [5, 14]: 703 nM
GMLIYSMWGK | 8.57 | 17.5 | 271 | 9910 | 54.6 | 
GQLKLNWFK |  |  |  |  |  | Kd [2, 10]: 28.1 nM
GSIKIKQDVR | 8060 | 611 | 281 | 2480 | 253 | 
GTILIKVEYK |  |  |  |  |  | Kd [2, 12]: 69.2 nM; Kd [5, 12]: 38.2 nM
GVTLFFLSGR |  |  |  |  |  | Kd [3, 15]: ≥ 70000 nM; Kd [4, 15]: 56.2 nM
HYIHCFRKPH |  |  |  |  |  | Kd [1, 16]: ≥ 70000 nM; Kd [2, 16]: ≥ 69700 nM; Kd [3, 16]: 89.8 nM; Kd [4, 16]: 589 nM; Kd [5, 16]: ≥ 70100 nM
IAARGYISTR |  |  |  |  |  | Kd [5, 10]: 12 nM
ICKMPLPTR |  |  |  |  |  | Kd [1, 17]: ≥ 40300 nM; Kd [2, 17]: 6030 nM; Kd [3, 17]: 36.8 nM; Kd [4, 17]: 775 nM; Kd [5, 17]: 16100 nM
IIGHIGHHY | 6390 | 4620 | ≥ 77900 | ≥ 77700 | ≥ 23100 | 
IILAALFMY | 20.5 | 0.307 | 11400 | 13300 | ≥ 55700 | 

Sequence | Kd [1, 7] [nM] | Kd [2, 7] [nM] | Kd [3, 7] [nM] | Kd [4, 7] [nM] | Kd [5, 7] [nM] | other results
ILFEEVMRGK |  |  |  |  |  | Kd [1, 12]: 8.96 nM
ITKEIKNRDK | 7890 | 18400 | ≥ 10000 | ≥ 35800 | 2210 | 
IVPFWITAIY |  |  |  |  |  | Kd [1, 6]: 71 nM; Kd [2, 6]: 1020 nM; Kd [3, 6]: 1320 nM; Kd [4, 6]: 2360 nM; Kd [5, 6]: 178 nM
KIKQDVRDK | 241 | 19800 | 9940 | ≥ 77700 | ≥ 24900 | 
KKKNPRLCTR |  |  |  |  |  | Kd [3, 8]: 1040 nM
KMAVEVGSIR | 4540 | ≥ 21100 | 1670 | 13700 | 95.8 | 
KTNSTVDVR | 1880 | 88.1 | 11 | 13300 | 19.9 | 
KVLAARLKR | 633 | 158 | 663 | 18800 | 6.07 | 
LFFTTTLFLH |  |  |  |  |  | Kd [1, 9]: 771 nM; Kd [2, 9]: 4120 nM; Kd [3, 9]: 232 nM; Kd [4, 9]: 191 nM; Kd [5, 9]: 445 nM
LIHDNIMYTY | 45.3 | 238 | 4160 | ≥ 32300 | 566 | 
LILAEYIRHR | 2190 | 738 | 80.4 | 5390 | 1730 | 
LLSINSSFY | 986 | 479 | 2390 | 6340 | 3460 | 
LLYAAEMVEY | 3.93 | 0.576 | 236 | 17100 | 9.35 | 
LMIVARHER |  |  |  |  |  | Kd [3, 8]: 5.18 nM; Kd [4, 8]: 116 nM
LMPILTLTR |  |  |  |  |  | Kd [1, 6]: 102 nM; Kd [2, 6]: 1130 nM; Kd [3, 6]: 723 nM; Kd [4, 6]: 15000 nM; Kd [5, 6]: 1720 nM
LSFSNTIQSY | 7430 | 1370 | ≥ 70000 | ≥ 70000 | 4670 | 
LSKWHTSAR | 5830 | 3430 | 1.34 | 15.3 | 20.7 | 
LTDTEYRAR | ≥ 78000 | ≥ 53900 | ≥ 77900 | ≥ 77700 | ≥ 42600 | 
MFAVGLLFRR |  |  |  |  |  | Kd [3, 18]: 19000 nM; Kd [4, 18]: 1.66 nM; Kd [5, 18]: 61.8 nM
MLPPCYNFLK |  |  |  |  |  | Kd [1, 6]: 6.77 nM; Kd [2, 6]: 9.53 nM; Kd [3, 6]: 129 nM; Kd [4, 6]: 138 nM; Kd [5, 6]: 2.61 nM
MVGANASDR |  |  |  |  |  | Kd [5, 11]: 45.5 nM
MVLLQMEDK |  |  |  |  |  | Kd [2, 10]: 2010 nM

Sequence | Kd [1, 7] [nM] | Kd [2, 7] [nM] | Kd [3, 7] [nM] | Kd [4, 7] [nM] | Kd [5, 7] [nM] | other results
NIPTAIQQVR |  |  |  |  |  | Kd [5, 12]: 72.4 nM
NLEMIDERKY | ≥ 70100 | ≥ 69800 | ≥ 24200 | ≥ 70000 | ≥ 21400 | 
NLTETFRDY | ≥ 78000 | ≥ 77900 | ≥ 77900 | ≥ 77700 | ≥ 37400 | 
NMKQCTNDIY | 211 | 16400 | ≥ 57400 | ≥ 65700 | 2780 | 
NVAYNVVNK |  |  |  |  |  | Kd [1, 6]: 469 nM; Kd [2, 6]: 121 nM; Kd [3, 6]: 7170 nM; Kd [4, 6]: 19300 nM; Kd [5, 6]: 30.8 nM
NYKERMVTFK |  |  |  |  |  | Kd [4, 8]: 1400 nM
PFTQHLLNIR | ≥ 22300 | 2890 | 167 | 6510 | 224 | 
PIYSHTERDK | 932 | 6590 | 977 | ≥ 54600 | 14000 | 
PLFHGGEPIK | 18300 | ≥ 28700 | ≥ 70000 | ≥ 70000 | ≥ 70200 | 
QLRSLTEILK |  |  |  |  |  | Kd ([1]; source organism: Homo sapiens): 55 nM
QQLEDIFMR | 2710 | 13400 | 1190 | 4070 | 5480 | 
QSVLCVKKFY | 1370 | 13200 | 15600 | ≥ 24500 | 5670 | 
TKTAVNMLTH |  |  |  |  |  | Kd [3, 19]: 7550 nM; Kd [4, 19]: ≥ 35700 nM; Kd [5, 19]: 870 nM
TLLVWHTWQK |  |  |  |  |  | Kd [1, 12]: 45.5 nM
TTLSRTSKK |  |  |  |  |  | Kd [1, 10]: 14.3 nM; Kd [2, 10]: 158 nM; Kd [5, 10]: 302 nM
TTTIFAGHLK |  |  |  |  |  | Kd [2, 18]: 22.7 nM; Kd [5, 18]: 8.88 nM
VAAEMEEALR |  |  |  |  |  | Kd [5, 10]: 128 nM
VTFKNAHAK |  |  |  |  |  | Kd [1, 12]: 7.94 nM; Kd [2, 12]: 58.4 nM; Kd [5, 12]: 58.4 nM
WSYYCAGLK |  |  |  |  |  | Kd [1, 18]: 12.2 nM
YVSAITQAER |  |  |  |  |  | Kd [3, 8]: 104 nM; Kd [5, 8]: 14.3 nM
